Data on 62 molecules can be found in patent US20250066422A1 (published 2025).

The test addresses T1, HLA-A*0201 (human).
T1 construct: MHC monomer first loaded with a UV-sensitive peptide that is cleaved and exchanged for the test peptide; captured on streptavidin; also called peptide-receptive MHC molecules
Put plainly: UV-ligand exchange, streptavidin/anti-b2m sandwich ELISA. An excerpt: Candidate peptides for the vaccines according to the present invention were further tested for immunogenicity by in vitro priming assays. The individual peptide-MHC complexes required for these assays were produced by UV-ligand exchange, where a UV-sensitive peptide is cleaved upon UV-irradiation, and exchanged with the peptide of interest as analyzed. Only peptide candidates that can effectively bind and stabilize the peptide-receptive MHC molecules prevent dissociation of the MHC complexes. To determine the yield of the exchange reaction, an ELISA was performed based on the detection of the light chain (β2m) of stabilized MHC complexes.
96 well MAXISorp plates (NUNC) were coated over night with 2ug/ml streptavidin in PBS at room temperature, washed 4× and blocked for 30 min at 37° C. in 2% BSA containing blocking buffer. Refolded HLAA*0201/MLA-001 monomers served as standards, covering the range of 8-500 ng/ml. Peptide-MHC monomers of the UV-exchange reaction were diluted 100 fold in blocking buffer. Samples were incubated for 1 h at 37° C., washed four times, incubated with 2ug/ml HRP conjugated anti-β2m for 1 h at 37° C., washed again and detected with TMB solution that is stopped with […]. Absorption was measured at 450 nm.
In the case of KLAVALLAA (synthetic peptide from IL8) [IL8-001], the “Average exchange yield in %” value stood at 41%.

KLDETNNTL (synthetic peptide from DST) [DST-002]: the “Average exchange yield in %” value was 59%.

With SLYDNQITTV (synthetic peptide from SLIT1, SLIT2) [SLI-001], the “Average exchange yield in %” value was found to be 47%.

Consider AILDTLYEV (synthetic peptide from PLEKHA8) [PLEKHA8-001], for which the “Average exchange yield in %” value was determined as 47%.

Turning to ALVDHTPYL (synthetic peptide from VCAN) [VCAN-002], the “Average exchange yield in %” value was 49%.

As to ALYDSVILL (synthetic peptide from DIO2) [DIO2-001], the “Average exchange yield in %” value came out at 50%.

Turning to ILFPDIIARA (synthetic peptide from MAGEF1) [MAGEF1-001], the “Average exchange yield in %” value was determined as 83%.

On to ALYGRLEVV (synthetic peptide from ANKS1A) [ANKS1A-001], for which the “Average exchange yield in %” value came out at 78%.

For the molecule RVLPPSALQSV (synthetic peptide from AURKB) [AURKB-001], the “Average exchange yield in %” value came out at 54%.

On to GLTDNIHLV (synthetic peptide from MXRA5) [MXRA5-002], for which the “Average exchange yield in %” value was determined as 56%.

In the case of ALASVIKEL (synthetic peptide from IFT81) [IFT81-001], the “Average exchange yield in %” value was determined as 57%.

Turning to SLIDADPYL (synthetic peptide from CCNA2) [CCNA2-001], the “Average exchange yield in %” value worked out at 54%.

Regarding FQYDHEAFL (synthetic peptide from RCN1, RCN3) [RCN1-001], the “Average exchange yield in %” value amounted to 75%.

SLLPVDIRQYL (synthetic peptide from STAT2) [STAT2-001]: the “Average exchange yield in %” value amounted to 69%.

With SISDVIAQV (synthetic peptide from ANKH) [ANKH-001], the “Average exchange yield in %” value was 52%.

As to AMSSKFFLV (synthetic peptide from WNT5A) [WNT5A-001], the “Average exchange yield in %” value was determined as 37%.

Turning to KVLEILHRV (synthetic peptide from HERC4) [HERC4-001], the “Average exchange yield in %” value was 61%.

Regarding TLSSIKVEV (synthetic peptide from MXRA5) [MXRA5-001], the “Average exchange yield in %” value is 57%.

On to ILQDRLNQV (synthetic peptide from CDC6) [CDC6-001], for which the “Average exchange yield in %” value came out at 48%.

In the case of SLLESNKDLLL (synthetic peptide from SLC3A2) [SLC3A2-001], the “Average exchange yield in %” value stood at 56%.

For VLAPLFVYL (synthetic peptide from FZD1, FZD2, FZD7) [FZD-001], the “Average exchange yield in %” value was determined as 52%.

For AMATESILHFA (synthetic peptide from PI4KA) [PI4KA-001], the “Average exchange yield in %” value was 51%.

Take YLPHAPPFA (synthetic peptide from JUNB) [JUNB-001]: the “Average exchange yield in %” value was found to be 51%.

For the molecule AMFENFVSV (synthetic peptide from NCBP1) [NCBP1-001], the “Average exchange yield in %” value was 65%.

In the case of ILVSWLPRL (synthetic peptide from NET1) [NET1-001], the “Average exchange yield in %” value was 82%.

Regarding FLIPIYHQV (synthetic peptide from ACACA) [ACACA-001], the “Average exchange yield in %” value was determined as 61%.

As for KIVDFSYSV (synthetic peptide from BUB1B) [BUB1B-001], the “Average exchange yield in %” value was found to be 59%.

Turning to VLLPVEVATHYL (synthetic peptide from SLC34A2) [SLC34A2-001], the “Average exchange yield in %” value turned out to be 51%.

Turning to KLFGEKTYL (synthetic peptide from SERPINB3) [SERPINB3-001], the “Average exchange yield in %” value was 47%.

For the molecule SLLAQNTSWLL (synthetic peptide from THY1) [THY1-001], the “Average exchange yield in %” value worked out at 65%.

On to TVAEVIQSV (synthetic peptide from KIF26B) [KIF26B-001], for which the “Average exchange yield in %” value is 68%.

With AIDGNNHEV (synthetic peptide from GFPT2) [GFPT2-001], the “Average exchange yield in %” value worked out at 43%.

KIQEMQHFL (synthetic peptide from MMP12) [MMP12-003]: the “Average exchange yield in %” value was 57%.

On to HLLEDIAHV (synthetic peptide from NEFH) [NEFH-001], for which the “Average exchange yield in %” value was 50%.

As for TVIGFLLPFA (synthetic peptide from P2RY6) [P2RY6-001], the “Average exchange yield in %” value was found to be 91%.

For YVYQNNIYL (synthetic peptide from FAP) [FAP-003], the “Average exchange yield in %” value was determined as 31%.

Regarding NLIEKSIYL (synthetic peptide from DST) [DST-001], the “Average exchange yield in %” value came to 50%.

As to KIYNEFISV (synthetic peptide from RGS4) [RGS4-001], the “Average exchange yield in %” value was 49%.

Turning to SLVAVELEKV (synthetic peptide from COG4) [COG4-001], the “Average exchange yield in %” value was 57%.

As to ALANQKLYSV (synthetic peptide from MDN1) [MDN1-001], the “Average exchange yield in %” value stood at 67%.

ILFEINPKL (synthetic peptide from ABCA13) [ABCA13-001]: the “Average exchange yield in %” value stood at 93%.

Consider KIQEILTQV (synthetic peptide from IGF2BP3) [IGF2BP3-001], for which the “Average exchange yield in %” value is 46%.

For GLYPDAFAPV (synthetic peptide from ELANE) [ELANE-001], the “Average exchange yield in %” value came out at 62%.

As to YLAPFLRNV (synthetic peptide from CNOT1) [CNOT1-001], the “Average exchange yield in %” value was 57%.

Regarding KLLEYIEEI (synthetic peptide from HMMR) [HMMR-001], the “Average exchange yield in %” value turned out to be 49%.

ILMGTELTQV (synthetic peptide from OLFM1) [OLFM1-001]: the “Average exchange yield in %” value was determined as 48%.

As to TLTNIIHNL (synthetic peptide from ORMDL1) [ORMDL1-002], the “Average exchange yield in %” value turned out to be 61%.

As to SMSGYDQVL (synthetic peptide from HNRNPH1, HNRNPH2) [HNRNPH-001], the “Average exchange yield in %” value stood at 26%.

For the molecule SLAPAGVIRV (synthetic peptide from TLX3) [TLX3-001], the “Average exchange yield in %” value stood at 70%.

On to VVDKTLLLV (synthetic peptide from C11orf24) [C11orf24-001], for which the “Average exchange yield in %” value was found to be 47%.

Turning to GLAEDIDKGEV (synthetic peptide from EEF2) [EEF2-002], the “Average exchange yield in %” value was determined as 31%.

Consider FLHHLEIEL (synthetic peptide from ITGA11) [ITGA11-001], for which the “Average exchange yield in %” value was found to be 53%.

Regarding SILTIEDGIFEV (synthetic peptide from HSPA2, HSPA8) [HSP-002], the “Average exchange yield in %” value was determined as 47%.

Regarding ALWEKNTHL (synthetic peptide from CEP250) [CEP250-002], the “Average exchange yield in %” value was 70%.

On to VLSVVEVTL (synthetic peptide from RNF213) [RNF213-001], for which the “Average exchange yield in %” value is 84%.

In the case of SLAGDVALQQL (synthetic peptide from NCAPD2) [NCAPD2-001], the “Average exchange yield in %” value is 76%.

With SLWGGDVVL (synthetic peptide from VPS13B) [VPS13B-001], the “Average exchange yield in %” value came to 63%.

On to TLISRLPAV (synthetic peptide from RCC1) [RCC1-001], for which the “Average exchange yield in %” value was determined as 77%.

Consider NLLAEIHGV (synthetic peptide from DPYSL4) [DPYSL4-001], for which the “Average exchange yield in %” value came to 77%.

Regarding SLHFLILYV (synthetic peptide from ATP2A1, ATP2A2) [ATP-001], the “Average exchange yield in %” value amounted to 19%.

As to AMLAVLHTV (synthetic peptide from C12orf44) [C12orf44-001], the “Average exchange yield in %” value was 34%.

In the case of KLSWDLIYL (synthetic peptide from CERCAM) [CERC-001], the “Average exchange yield in %” value turned out to be 62%.
